# Patent publication US20050058639A1 (AstraZeneca / MedImmune, published 2005)
# T1: human RANTES (human, UniProt P13501 24-91)
# T1 construct: also called hRANTES
# T1 sequence (looked up): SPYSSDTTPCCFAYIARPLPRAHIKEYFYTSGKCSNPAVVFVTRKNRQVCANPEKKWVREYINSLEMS
# T2: recombinant human MCP-2 (human, UniProt P80075 24-99)
# T2 construct: also called rhMCP-2
# T2 sequence (looked up): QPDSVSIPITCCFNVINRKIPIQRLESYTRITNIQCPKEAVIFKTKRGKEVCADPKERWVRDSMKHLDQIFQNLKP
# T3: human GRO/MGSA (human, UniProt P09341 35-107)
# T3 construct: also called hGRO/MGSA; GRO-alpha
# T3 sequence (looked up): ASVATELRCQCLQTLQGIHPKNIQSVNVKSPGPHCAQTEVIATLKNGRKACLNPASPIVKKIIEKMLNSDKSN
# T4: human MIP-1-alpha (human, UniProt P10147 24-92, limits assumed)
# T4 construct: also called hMIP-1-alpha
# T4 sequence (looked up): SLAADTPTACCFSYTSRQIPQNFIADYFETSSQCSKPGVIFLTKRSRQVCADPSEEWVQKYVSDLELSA
# B1: anti-MCP-1 mAb 1.4.1 (antibody, V domains shown)
# VH: QSGPGLVKPSQTLSLTCAISGDSVSSNSAAWNWIRQSPSRGLEWLGRTYYRSKWYSDHAVSVRSRITIYPDTSKNQFSLQLNSVTPEDTAVYYCARDRISGTYVGMDVWGQGTTVTVSS
# VL: DIGMTQTPLSLSVTPGQPASISCKSSQSLLYSDGKTYLYWYLQKPGQPPQHLIYEVSNRFSGVPDRFSGSGSGTDFTLKISRVEADDVGVYYCMQTIHLPLTFGGGTKVEIQR
# B2: anti-MCP-1 mAb 5.1 (antibody, V domains shown)
# VH: EQSGGGVVQPGRSLRLSCAASGFTFSSYGMHWVRQAPGKGLEWVAVIWYDGNNKYYADSVKGRFTISRDTSKNTLYLQMNSLRAEDTAVYYCARDSSSYYYYGMDVWGQGTTVTVSS
# VL: NFMLTQPHSVSESPGKTVTISCTRSSGSIASNYVQWFQQRPGSSPTTVIYEDDQRPSGVPDRFCGSIDSSSNSASLTISGLRTEDEADYYCQSYDSSNHVVFGGGTKLTVLG
# B3: anti-MCP-1 mAb 3.15.1 (antibody, human IgG4, kappa, V domains shown)
# VH: QVQLVQSGAEVKKPGASVQVSCKVSGDTLTELSMHWVRQAPGKGLEWMGGFDPEDGETIYARKFQGRVTMTEDTSTDTVYMELSSLRSEDTAVYFCATDSRGYSGYFDNWGQGTLVTVSS
# VL: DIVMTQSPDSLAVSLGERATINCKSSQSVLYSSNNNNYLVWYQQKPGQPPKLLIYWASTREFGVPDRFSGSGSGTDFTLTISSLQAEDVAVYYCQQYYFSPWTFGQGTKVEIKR
# B4: anti-MCP-1 mAb 3.14.1 (antibody, V domains shown)
# VH: EQSGPGLVKPSQTLSLTCAISGDSVSSNSAAWNWIRQSPSRGLEWLGRTYYRSKWYSDHAVSVRSRITIYPDTSKNQFSLQLNSVTPEDTAVYYCARDRISGTYVGMDVWGQGTTVTVSS
# VL: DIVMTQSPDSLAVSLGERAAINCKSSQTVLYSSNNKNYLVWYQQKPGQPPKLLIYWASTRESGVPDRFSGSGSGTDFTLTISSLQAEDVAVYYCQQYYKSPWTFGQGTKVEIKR
# Molecular target: T5, human monocyte chemo-attractant protein-1 (MCP-1) (human, UniProt P13500 24-99)
# Experiment: cell-based or functional assay
# T5 sequence (P13500 24-99): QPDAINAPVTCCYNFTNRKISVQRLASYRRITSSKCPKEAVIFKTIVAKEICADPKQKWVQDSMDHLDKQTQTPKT
Binder,IC50 Ca++ Flux [µg/mL],IC50 Chemotaxis [µg/mL]
B1,0.11,0.51
B2,3.5,1.3
B3,0.12,0.89
B4,1.3,1.4

# Molecular target: T5, human monocyte chemo-attractant …
# Experiment: ELISA, hybridoma supernatant on coated MCP-1
# Procedure: Selection of candidate antibodies for ELISA. After 14 days of culture, hybridoma supernatants were screened for MCP-1-specific monoclonal antibodies. The ELISA plates (Fisher, Cat. No. 12-565-136) were coated with 50 μl/well of MCP-1 (2 μg/mL) in Coating Buffer (0.1 M Carbonate Buffer, pH 9.6, NaHCO₃8.4 g/L), then incubated at 4° C. overnight. After incubation, the plates were washed with Washing Buffer (0.05% Tween 20 in PBS) three times. 200 μl/well Blocking Buffer (0.5% BSA, 0.1% Tween 20, 0.01% Thimerosal in 1× PBS) were added and the plates incubated at room temperature for 1 hour. After incubation, the plates were washed with Washing Buffer three times. 50 μL/well of hybridoma supernatants, and positive and negative controls were added and the plates incubated at room temperature for 2 hours.
# The positive control used throughout was XMG2 MCP-1 Group 1, footpad N160-7 and the negative control was XMG2 KLH Group 1, footpad L627-6. After incubation, the plates were washed three times with Washing Buffer. […] In the secondary screen, three sets of samples (positives in first screening) were screened, one set for hIgG detection, one set for hKappa detection, and one set for hlambda detection. After incubation, the plates were washed three times with Washing Buffer. 100 μL/well of TMB (BioFX Lab. Cat. #TMSK-0100-01) were added and the plates allowed to develop for about 10 minutes (until negative control wells barely started to show color), then 50 μL/well stop solution (TMB Stop Solution (BioFX Lab. Cat. #STPR-0100-01) were added and the plates read on an ELISA plate reader at wavelength 450 nm. The OD readings from the positive wells are presented in Table 9.
row,Binder,ELISA OD-MCP-1 [OD450]
1,B1,4
2,B2,4
3,B3,4
4,B4,4

# Molecular target: T1, human RANTES
# Experiment: ELISA, coated antigen
# Procedure: (§1) Determining cross-reactivity of anti-MCP-1 antibodies with other chemokines. ELISA plates (Fisher Cat. No. 12-565-136) were coated with 50 μl/well of MCP-1, MCP-2, MCP-3, MCP-4, RANTES, GRO-alpha, MIP-1 alpha, eotaxin, rat MCP-1 and mouse JE (2 μg/ml) in coating buffer (0.1 M carbonate buffer, pH 9.6, NaHCO₃ 8.4 g/L, then incubated at 4° C. overnight. After incubation, the plates were washed with washing buffer (0.05% Tween 20 in PBS) three times. 200 μL/well blocking buffer (0.5% BSA, 0.1% Tween 20, 0.01% Thimerosal in 1×PBS) were added and the plates incubated at room temperature for 1 hour. After incubation, the plates were washed with washing buffer three times. 50 μL/well of hybridoma supernatants, and positive and negative controls (positive control was anti-MCP-1 antibody purchased from R&D Sciences, and negative control was an antibody to Keyhole Limpet Hemocyanin produced at Abgenix) were added and the plates incubated at room temperature for 2 hours. After incubation, the plates were washed three times with washing buffer. […] After incubation, the plates were washed three times with washing buffer and 100 μL/well of TMB (BioFX Lab. Cat. #TMSK-0 100-01) was added and the plates allowed to develop for about 10 minutes.
row,Binder,ELISA OD [OD450]
1,B1,0.046
2,B2,0.043
3,B3,0.049
4,B4,0.045

# Molecular target: T2, recombinant human MCP-2
# Experiment: ELISA, coated antigen
# Procedure: as §1
row,Binder,ELISA OD [OD450]
1,B1,0.046
2,B2,0.051
3,B3,0.043
4,B4,0.045

# Molecular target: T6, human eotaxin (human, UniProt P51671 24-97)
# T6 construct: also called hEotaxin
# Experiment: ELISA, coated antigen
# Procedure: as §1
# T6 sequence (P51671 24-97 limits assumed): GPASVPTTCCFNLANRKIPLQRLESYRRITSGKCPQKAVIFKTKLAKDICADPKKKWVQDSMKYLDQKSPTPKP
row,Binder,ELISA OD [OD450]
1,B1,0.043
2,B2,0.042
3,B3,0.045
4,B4,0.043

# Molecular target: T7, recombinant human MCP-4 (human, UniProt Q99616 24-98, limits assumed)
# T7 construct: also called rhMCP-4
# Experiment: ELISA, coated antigen
# Procedure: as §1
# T7 sequence (Q99616 24-98 limits assumed): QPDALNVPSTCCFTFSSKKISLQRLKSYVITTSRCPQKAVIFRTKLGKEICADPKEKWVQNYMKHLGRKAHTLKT
row,Binder,ELISA OD [OD450]
1,B1,0.045
2,B2,0.043
3,B3,0.051
4,B4,0.045

# Molecular target: T3, human GRO/MGSA
# Experiment: ELISA, coated antigen
# Procedure: as §1
row,Binder,ELISA OD [OD450]
1,B1,0.044
2,B2,0.044
3,B3,0.044
4,B4,0.046

# Molecular target: rat MCP-1 (rat, UniProt P14844 24-148)
# Experiment: ELISA, coated antigen
# Procedure: as §1
# Sequence of rat MCP-1 (P14844 24-148 limits assumed): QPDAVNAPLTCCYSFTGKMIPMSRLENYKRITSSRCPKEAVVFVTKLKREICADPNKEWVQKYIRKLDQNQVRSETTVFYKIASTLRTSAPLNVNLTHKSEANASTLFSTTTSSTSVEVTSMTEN
row,Binder,ELISA OD [OD450]
1,B1,0.05
2,B2,0.054
3,B3,0.05
4,B4,0.046

# Molecular target: T8, recombinant mouse JE/MCP-1 (mouse, UniProt P10148 24-148)
# T8 construct: also called rmJE/MCP-1
# Experiment: ELISA, coated antigen
# Procedure: as §1
# T8 sequence (P10148 24-148 limits assumed): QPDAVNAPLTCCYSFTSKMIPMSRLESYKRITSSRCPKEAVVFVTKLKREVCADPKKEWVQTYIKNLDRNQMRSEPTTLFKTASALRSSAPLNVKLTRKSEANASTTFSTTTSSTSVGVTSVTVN
row,Binder,ELISA OD [OD450]
1,B1,0.042
2,B2,0.044
3,B3,0.041
4,B4,0.044

# Molecular target: T5, human monocyte chemo-attractant …
# Experiment: ELISA, coated antigen
# Procedure: as §1
row,Binder,ELISA OD [OD450]
1,B1,0.738
2,B2,0.521
3,B3,0.948
4,B4,0.549

# Molecular target: T9, recombinant human MCP-3 (human, UniProt P80098 24-99)
# T9 construct: also called rhMCP-3
# Experiment: ELISA, coated antigen
# Procedure: as §1
# T9 sequence (P80098 24-99 limits assumed): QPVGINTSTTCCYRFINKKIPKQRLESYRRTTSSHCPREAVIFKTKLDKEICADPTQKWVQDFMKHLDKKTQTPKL
row,Binder,ELISA OD [OD450]
1,B1,0.049
2,B2,0.05
3,B3,0.046
4,B4,0.05

# Molecular target: T4, human MIP-1-alpha
# Experiment: ELISA, coated antigen
# Procedure: as §1
row,Binder,ELISA OD [OD450]
1,B1,0.041
2,B2,0.043
3,B3,0.045
4,B4,0.046
